Data published in patent US20240383974A1 (BETTA PHARMACEUTICALS, published 2024).
Where two headings read alike, the source gives them in different places. Each block holds one binder with its values, some of them ahead of it.

Columns and labels:
[1] = target: T1, GARP (CHO-K1-GARP cell line that overexpresses GARP) (UniProt Q14392 20-662, limits assumed); assay: FACS on CHO-K1-GARP cells
T1 construct: whole, on cells; also called GARP protein
T1 sequence (looked up): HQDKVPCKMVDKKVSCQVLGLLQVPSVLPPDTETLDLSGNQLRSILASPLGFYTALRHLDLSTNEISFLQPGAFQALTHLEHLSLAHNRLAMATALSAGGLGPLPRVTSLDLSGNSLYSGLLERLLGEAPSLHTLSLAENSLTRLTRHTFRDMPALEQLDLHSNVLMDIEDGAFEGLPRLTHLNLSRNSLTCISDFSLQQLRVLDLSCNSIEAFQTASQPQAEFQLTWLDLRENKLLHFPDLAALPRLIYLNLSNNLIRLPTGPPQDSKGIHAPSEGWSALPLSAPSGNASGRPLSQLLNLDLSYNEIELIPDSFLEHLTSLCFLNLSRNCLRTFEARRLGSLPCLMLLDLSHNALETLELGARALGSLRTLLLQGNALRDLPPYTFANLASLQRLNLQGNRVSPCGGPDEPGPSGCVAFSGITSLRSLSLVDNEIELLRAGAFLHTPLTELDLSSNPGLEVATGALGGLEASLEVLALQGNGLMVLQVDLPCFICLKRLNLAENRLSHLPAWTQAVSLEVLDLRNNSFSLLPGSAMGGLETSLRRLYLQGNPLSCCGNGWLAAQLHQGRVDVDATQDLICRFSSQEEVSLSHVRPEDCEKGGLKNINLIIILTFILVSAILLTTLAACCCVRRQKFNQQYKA

[2] = target: T2, human transforming growth factor β1 (human, UniProt P01137 279-390); assay: ELISA, plate-coated hTGF-β1
T2 construct: Coated on the ELISA plate at 100 ng/well; also called hTGF-β1; TGF-β
T2 sequence (P01137 279-390 limits assumed): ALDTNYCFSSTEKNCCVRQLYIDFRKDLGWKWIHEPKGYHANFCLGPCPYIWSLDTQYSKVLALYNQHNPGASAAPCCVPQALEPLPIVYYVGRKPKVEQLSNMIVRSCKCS

[3] = target: T3, GARP-TGF-β complex (293-GARP/TGFβ stably transfected cells) (UniProt Q14392 20-662; P01137 30-390); assay: FACS on 293-GARP/TGFβ cells
T3 construct: whole, on cells; Complex of GARP and (latent) TGF-β on the cell surface; also called 293-GARP/TGFβ cell; 293F-GAPR/TGFβ/αvβ6 cells

[4] = target: T3, GARP-TGF-β complex (293-GARP/TGFβ …); assay: FACS on 293-GARP/TGFβ cells; remark: listed apart in the source
[5] = target: T1, GARP (CHO-K1-GARP cell line that …); assay: FACS on CHO-K1-GARP cells; remark: listed apart in the source
[6] = target: T3, GARP-TGF-β complex (293-GARP/TGFβ …); assay: FACS on 293-GARP/TGFβ cells; remark: listed apart in the source
human PD-L1 [7] = target: T4, human PD-L1 (human, UniProt Q9NZQ7 19-290); assay: cell-based or functional assay
T4 sequence (Q9NZQ7 19-290): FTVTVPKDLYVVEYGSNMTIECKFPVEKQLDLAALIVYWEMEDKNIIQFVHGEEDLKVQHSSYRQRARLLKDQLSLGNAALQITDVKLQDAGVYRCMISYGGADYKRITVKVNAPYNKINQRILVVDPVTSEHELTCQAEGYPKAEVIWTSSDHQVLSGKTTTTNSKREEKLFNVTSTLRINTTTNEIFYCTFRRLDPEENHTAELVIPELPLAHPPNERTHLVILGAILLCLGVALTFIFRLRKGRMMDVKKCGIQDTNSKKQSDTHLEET

human PD-L1 [8] = target: T4, human PD-L1; assay: FACS on MC38-hPD-L1 cells
[9] = target: T3, GARP-TGF-β complex (293-GARP/TGFβ …); assay: cell-based or functional assay

B1: antibody m107 (antibody, V domains shown)
VH: QVHLQQSGAALARPGASVKMSCKASGYTFSAYTIHWVKQRPGQGLEWIGYINPSNDFAKYIQKFKDKATLTADKSSSTAYMQLNSLTSEDSAIYYCARVDYYGGSYRWYLDVWGAGTTVTVSS
VL: DIVLTQSPATLSVTPGDSVSLSCRASQSISNNLHWYQQKSHESPRLLIKYTSQSISGIPSRFSGSGSGTDFTLSINSVETEDFGMYFCQQSNSWPIFTFGSGTKLEIK
EC50 [1]: > 2 nM | EC50 [2]: 0.021 nM | EC50 [3]: 3.2 nM

B5: antibody m305 (antibody, V domains shown)
VH: EVQLQQSGPELVKPGASVKIPCKTSGYTFTDYNMNWVKQSHGKSLEWIGDINPYSGGTIYNQKFKGKAILTVDKSSSTAYMELRSLTSEDTGIYYCARVSKGSGDYWGQGTTLTVSS
VL: DIQMTQSPSSLSASLGERVSLTCRASQEISGYLSWLQQKPDGTIKRLIYAASTLDSGVPKRFSGSRSGSDYSLTISSLESEDFADYYCLQYASYPTCTFGGGTKLEIK
EC50 [1]: < 1 nM | EC50 [3]: 4.1 nM

B7: antibody m212 (antibody, V domains shown)
VH: QVQLQQPGPELVKPGASVKLTCKASGYIFTSYWMHWVKRGPGRGLEWIGRIAPNSGGAHYHEKFKTKVTLTVDKPSSTAYMEFSSLTSEDSAVYYCARGNYGMDYWGQGTAVTVSS
VL: DIQMTQTTSSLSASLGDRVTISCRASQDISNYLNWYQQKPDGTVELLIYYTSTLHSGVPSRFSGSGSGTDYSLTISNLEQEDIATYFCQQVNTLPFTFGSGTKLEII
notes: Hybridoma-derived, expressed in mammalian cells; hIgG1 and hIgG4 as controls
EC50 [1]: 0.46 nM | EC50 [3]: < 2 nM

More lines, main results first:

EC50 [4]: 2.1 nM | EC50 [5]: 0.45 nM
B2: antibody m305-hu (antibody, V domains shown)
VH: QVQLVQSGAEVKKPGASVKVSCKTSGYTFTDYNMNWVKQAPGQGLEWIGDINPYSGGTIYNQKFKGRATLTTDTSTSTAYMELRSLRSDDTAVYYCARVSKGSGDYWGQGTLVTVSS
VL: DIQMTQSPSSLSASVGDRVTITCRASQEISGYLSWLQQKPGGAPKRLIYAASTLDSGVPSRFSGSRSGTDYTLTISSLQPEDFATYYCLQYASYPTCTFGGGTKVEIK
notes: Humanized m305

EC50 [6]: 5.4 nM | IC50(nM), PD-1/PD-L1 NFAT-luciferase reporter (293T-hPD-L1 with Jurkat-PD1-CD3zeta-NFAT-Luc2 cells) (human PD-L1 [7]): 13 nM | EC50 (human PD-L1 [8]): 0.39 nM | IC50(nM), TGFβ reporter gene blocking (293F-GAPR/TGFβ/αvβ6 cells with 293-SBE-Luciferase cells) [9]: 1.7 nM
B3: b202-L-D2hu (bispecific antibody, human IgG1, kappa)
heavy: not shown
light: DIVLTQSPDSLAVSLGERATINCRASESVTIIGTNLIQWFQQKPGQPPKLLIYHASNLETGVPDRFSGSGSRTDFTLTISSLQAEDVAVYYCLQSRQIPRTFGGGTKVEIKRTVAAPSVFIFPPSDEQLKSGTASVVCLLNNFYPREAKVQWKVDNALQSGNSQESVTEQDSKDSTYSLSSTLTLSKADYEKHKVYACEVTHQGLSSPVTKSFNRGECGGGGSGGGGSGGGGSGGGGSEVQLVESGGGLVQPGGSLRLSCAASGRDFLTYGMGWFRQAPGKGLEFVASINWSGSMTYYADSVKGRFTISRDNAKNSVYLQMNSLRAEDTAVYICAARRGAVTYASSNEYEHWGQGTQVTVSS
notes: also called b202-hu-L-D2hu

EC50 [4]: < 2 nM | EC50 [5]: 1.4 nM
B4: antibody m212-hu (antibody, V domains shown)
VH: QVQLVQSGAEVKKPGSSVKVSCKASGYIFTSYWMHWVKQAPGQGLEWIGRIAPNSGGAHYHEKFKTKVTITADKSTSTAYMEFSSLRSEDTAVYYCARGNYGMDYWGQGTAVTVSS
VL: DIQMTQSPSSLSASVGDRVTITCRASQDISNYLNWYQQKPGGAPELLIYYTSTLHSGVPSRFSGSGSGTDYTLTISSLQPEDFATYFCQQVNTLPFTFGSGTKLEIK
notes: Humanized m212
binding result (human PD-L1 [8]): no binding (tested: initial concentration 200 nM)

EC50 [6]: 5.6 nM | IC50(nM), PD-1/PD-L1 NFAT-luciferase reporter (293T-hPD-L1 with Jurkat-PD1-CD3zeta-NFAT-Luc2 cells) (human PD-L1 [7]): 7.8 nM | EC50 (human PD-L1 [8]): 0.34 nM | IC50(nM), TGFβ reporter gene blocking (293F-GAPR/TGFβ/αvβ6 cells with 293-SBE-Luciferase cells) [9]: 4.9 nM
B6: b202-hu-H-D2hu (bispecific antibody, human IgG1, kappa)
heavy: not shown
light: DIVLTQSPDSLAVSLGERATINCRASESVTIIGTNLIQWFQQKPGQPPKLLIYHASNLETGVPDRFSGSGSRTDFTLTISSLQAEDVAVYYCLQSRQIPRTFGGGTKVEIKRTVAAPSVFIFPPSDEQLKSGTASVVCLLNNFYPREAKVQWKVDNALQSGNSQESVTEQDSKDSTYSLSSTLTLSKADYEKHKVYACEVTHQGLSSPVTKSFNRGEC
notes: also called b202-H-D2hu
